B1: OR4K15 (parent)
chain: GUUAACGGUCAUAGGCCAUGGAAACUAGGAGCACCAUUUCGCUGCCAGUGAAGAAAUGAACAAAGAAAAUCUGGGCCAGGCAGGCAUCAAAAGAAAUAGUCUUGCGCUCAACCAGAAAGUCUGUAAUCAUUUUAAGGGUA

Variants of: B1
Assay: self-cleavage, relative activity (ratio to wild type); higher = more cleavage; in vitro, sequencing; the parent is a self-cleaving ribozyme

| Variant | self-cleavage |
| --- | --- |
| GCUAACGGUCAUAGGCCAUGGAAACUAGGAGCACCAUUUCGCUGCCAGUGAAGAAAUGAACAAAGAAAAUCUAGGCCAGGCAGGCAUCAAAAGAAAUAGUCUUGCGCUCAACCAGAAAGUCUGUAAUCAUUUUAAGGGUA [U2C G73A] | 0.22 |
| GUUAACGGUCAUAGGCCAUGGAAACUAGGAGCACCAUUUCGCUGCCAGUGAAGAAAUGAACAAAGAAAAUCUGGGCCAGGCAGGCAUCAAAAGAGAUAGUCUUGCGCUCAACCAGGAAGUCUGUAAUCAUUUUAAGGGUA [A95G A116G] | 1.88 |
| GUUAACGGUCAUAGGCCACGGAAACUAGGAGCACCAUUUCGCUGCCAGUGAAGAAAUGAACAAAGAAAAUCUGGGCCAGGCAGGCAUCAAAAGAAAUAGUCUUGCGCUCAACCAGAAAGUCUGUAAUCAUUUUAAGGGUA [U19C] | 1.17 |
| GUUAACGGUCAUAGGCCAUGGGAACUAGGAGCACCAUUUCGCUGCCAGUGAAGAAGUGAACAAAGAAAAUCUGGGCCAGGCAGGCAUCAAAAGAAAUAGUCUUGCGCUCAACCAGAAAGUCUGUAAUCAUUUUAAGGGUA [A22G A56G] | 1.01 |
| GUUAACGGUCAUAGGCCAUGGAAACUAGGAGCACCAUUUCGCUGCCAGUGAAGAAAUGAACAAAGAAAAUCUGGGCCAGGCAGGCAUCAAAAGAAAUAGUCUUGCGCUCAACCAGAAAGUCUGCAAUCAUUUUAGGGGUA [U124C A135G] | 1.33 |
| GUUAACGGUCAUAGGCCAUGGAAACUAGGAGCACCCUUUCGCUGCCAGUGAAGAAAUGAACAAAGAAAAUCUGGGCCAGGCAGGCAUCAAAAGAAAUAGUCUUGCGCUCAACCAGAAAGUCUGUAAUCAUUCUAAGGGUA [A36C U132C] | 1.67 |
| GUUAACGGUCAUAGGCCAUGGAAACUAGGAGCACCAUUUCGCUGCCGGUGGAGAAAUGAACAAAGAAAAUCUGGGCCAGGCAGGCAUCAAAAGAAAUAGUCUUGCGCUCAACCAGAAAGUCUGUAAUCAUUUUAAGGGUA [A47G A51G] | 0.9 |
| GUUAACGGUCAUAGGCCACGGAAACUAGGAGCACCAUUUCGCUGCCAGUGAAGAAAUGAACAAAGUAAAUCUGGGCCAGGCAGGCAUCAAAAGAAAUAGUCUUGCGCUCAACCAGAAAGUCUGUAAUCAUUUUAAGGGUA [U19C A66U] | 0.38 |
| GUUAACGGUCAUAGGCCAUGGAAAUUAGGAGCACCAUUUCGCUGCCAGUGAAGAAAUGAACAAAGAAAAUCUGGGCCAGGCAGGCAUCAAAAGAAAUAGUCUUGCGCUCUACCAGAAAGUCUGUAAUCAUUUUAAGGGUA [C25U A110U] | 0.57 |
| GUUAACGGUCAUAGGCCAUGGAAACUAGGAGCACCAUUUCGCUGCCAGUGAAGAAAUGAACAAAGAAAAUCUGGGCCAGGCAGGCGUCAAAAGAAAUAGUCCUGCGCUCAACCAGAAAGUCUGUAAUCAUUUUAAGGGUA [A86G U102C] | 2.36 |
| GUUAACGGUCAUGGGCCAUGGAAACUAGGAGCACCAUUUCGCUGCCAGUGAAGAAAUGAACAAAGAAAAUCUGGGCCAGGCGGGCAUCAAAAGAAAUAGUCUUGCGCUCAACCAGAAAGUCUGUAAUCAUUUUAAGGGUA [A13G A82G] | 0.47 |
| GUUAACGGUCAUAAGCCAUGGAAACUAGGAGCACCAUUUCGCUGCCAGUGAAGAAAUGAACAAAGAGAAUCUGGGCCAGGCAGGCAUCAAAAGAAAUAGUCUUGCGCUCAACCAGAAAGUCUGUAAUCAUUUUAAGGGUA [G14A A67G] | 1.66 |
| GUUGACGGUCAUAGGCCAUGGAAACUAGGAGCACCAUUUCGCUGCCAGUGAAGAAAUGAUCAAAGAAAAUCUGGGCCAGGCAGGCAUCAAAAGAAAUAGUCUUGCGCUCAACCAGAAAGUCUGUAAUCAUUUUAAGGGUA [A4G A60U] | 1.76 |
| GUUAACGGUCAUAGGCCUUGGAAACUAGGAGCACCAUUUCGCUGCCAGUGAAGAAAUGAACAAAGAAAAUCUGGGCCAGGCAGGCAUCAAAAGAAAUCGUCUUGCGCUCAACCAGAAAGUCUGUAAUCAUUUUAAGGGUA [A18U A98C] | 1.13 |
| GUUAACGGUCAUAGGCCAUGGAAACUAGGAGCAACAUUUCGCUGCCAGUGAAGAAAUGAACAAAGAAAAUCUGGGCCAGGCAGGCAUCAAAAGAAAUAGUCUUGCGCUCAACCAGAAAGUCCGUAAUCAUUUUAAGGGUA [C34A U122C] | 0.77 |
| GUUAACGGUCAUAGGCCAUGGAAACUAGGAGCACCAUUUCGCUGCCAGUGAAGAAAUGAACGAAGAAAAUCUGGGCCAGGCAGGCAUCAAAAGUAAUAGUCUUGCGCUCAACCAGAAAGUCUGUAAUCAUUUUAAGGGUA [A62G A94U] | 2.08 |
| GUUAACGGUCAUAGGCCAUGGAAACUAGGAGCACCAUUCCGCUGCCAGUGAAGAAAUGAACAAAGAAAAUCUGGGCCAGGCAGGCAUCAAAAGAAAUAGUCUUACGCUCAACCAGAAAGUCUGUAAUCAUUUUAAGGGUA [U39C G104A] | 0.03 |
| GUUAACGGUCAUAGGCCUUGGAAACUAGGUGCACCAUUUCGCUGCCAGUGAAGAAAUGAACAAAGAAAAUCUGGGCCAGGCAGGCAUCAAAAGAAAUAGUCUUGCGCUCAACCAGAAAGUCUGUAAUCAUUUUAAGGGUA [A18U A30U] | 1.57 |
| GUUAACGGUCAUAGGCCAUGGAAACUAGGAGCACCAUUUCGCUGCCAGUGAAGAAAUGAACAAAGAAAAUCUGGGCCAGGCAGGCAUCAAAAGAAAUAGUCUUGCGCUCAACCAGAAAGUCUGUAUUCAUUCUAAGGGUA [A126U U132C] | 1.21 |
| GUUAACGGUCAUAGGCCAUGUAAACUAGGAGCACCAUUUCGCUGCCAGUGAAGAAAUGAACAAAGAAAAUCUGGGCCAGGCGGGCAUCAAAAGAAAUAGUCUUGCGCUCAACCAGAAAGUCUGUAAUCAUUUUAAGGGUA [G21U A82G] | 0.98 |
| GUUAACGGUCAUAGGCCACGGAAACUAGGAGCACCAUUUCGCUGCCAGUGAAGAAAUGAACAAAGAAAAUCUGGGCCAGGCAGGCAUCAAAAGAAAUAGUCUUGCGCUCAACCAGAUAGUCUGUAAUCAUUUUAAGGGUA [U19C A117U] | 0.58 |

| Variant | self-cleavage |
| --- | --- |
| GUUAACGGCCAUAGGCCAUGGAAACUAGGAGCACCAUUUCGCUGCCAGUGAAGAAAUGAACAAAGAAAAUCUGGGUCAGGCAGGCAUCAAAAGAAAUAGUCUUGCGCUCAACCAGAAAGUCUGUAAUCAUUUUAAGGGUA [U9C C76U] | 0.15 |
| GUUAACGGUCAUAGGGCAUGGAAACUAGGAGCACCAUUUCGCUGCCAGUGAAGAAAUGAACAAAGAAAAUCUGGGCCUGGCAGGCAUCAAAAGAAAUAGUCUUGCGCUCAACCAGAAAGUCUGUAAUCAUUUUAAGGGUA [C16G A78U] | 0.66 |
| GUUAACGGUCAUAGGCCAUGGAAACUAGGAGCACCAUUUCGCUGACAGUGAAGAAAUGAACAAAGAAAAUCUGGGCCAGGCAGGCAUCAAAAGAAAUAGUCUUGCGCUCAACCAGAAAGUCUGUAAUCAUUUUGAGGGUA [C45A A134G] | 1.72 |
| GUUAACGGUCAUAGGCCAUGGAAACUAGGAGCACCAUUUCGCUGCCAGUGAAGAAAUGAACAAAGAAAACCUGGGCCUGGCAGGCAUCAAAAGAAAUAGUCUUGCGCUCAACCAGAAAGUCUGUAAUCAUUUUAAGGGUA [U70C A78U] | 0.52 |
| GUUAACGGUCAUAGGCCAUGGAAACUAGGAGCACCAUUUCGCUGCCAGUGAAGAAAUGGACAAAGAAAAUCUGGGCCAGGCGGGCAUCAAAAGAAAUAGUCUUGCGCUCAACCAGAAAGUCUGUAAUCAUUUUAAGGGUA [A59G A82G] | 0.45 |
| GUUAACGGUCAUAGGCCAUGGAAACUAGGAGCACCAUUUCGCUGCCAGUGAAGAAAUGAACAAAGAAAAUCUGGCCCAGGCAGGCAUCAAAAGAAAUAGUCUUGCGCUCAACCAGAGAGUCUGUAAUCAUUUUAAGGGUA [G75C A117G] | 0.15 |
| GUUAACGGUCAUAGGCCAUGGAAACUAGGAGCACCAUUUCGCUGCCAGUGAAGAAAUGAACAAAGAAAAUCUGUGCCAGGCAGGCAUCAAAAGAAAUAGUCUUGCGCUCAACCAGAAAAUCUGUAAUCAUUUUAAGGGUA [G74U G119A] | 0.19 |
| GUUAACGGUCGUAGGCCAUGGAAACUAGGACCACCAUUUCGCUGCCAGUGAAGAAAUGAACAAAGAAAAUCUGGGCCAGGCAGGCAUCAAAAGAAAUAGUCUUGCGCUCAACCAGAAAGUCUGUAAUCAUUUUAAGGGUA [A11G G31C] | 1.04 |
| GUCAACGGUCAUAGGCCAUGGAAACAAGGAGCACCAUUUCGCUGCCAGUGAAGAAAUGAACAAAGAAAAUCUGGGCCAGGCAGGCAUCAAAAGAAAUAGUCUUGCGCUCAACCAGAAAGUCUGUAAUCAUUUUAAGGGUA [U3C U26A] | 1.76 |
| GUUAACGGUCAUAGGCCAUGGAAACUAGGAGCACCAUUUCGCUGCCAGUGAAGAAAUGAACAAAGAAAAUCUGGGCCAGGCAGGCAUCAAAAGAAAUAGUCUUGCGCUCAAUCAGAAAGUCUGUAAUCAUUUUAAGGGUU [C112U A140U] | 0.01 |
| GUUAACGGUCAUAGGCCAUGGAAACUAGGAGCCCCAUUUCGCUGCCAGUGAAGAAAUGAACAAAGAAAAUCUGAGCCAGGCAGGCAUCAAAAGAAAUAGUCUUGCGCUCAACCAGAAAGUCUGUAAUCAUUUUAAGGGUA [A33C G74A] | 0.38 |
| GUUAACGGUCAUAGGCCGUGGAAACUAGGAGCACCAUUUCGCUGCCAGUGAAGAAAUGAACAAAGAAAAUCUGGGCCAGGCAGGCAUCAAAAGAAAUAGUAUUGCGCUCAACCAGAAAGUCUGUAAUCAUUUUAAGGGUA [A18G C101A] | 0.06 |
| GUUAACGGUCAUAGGCCAUGGAAACUAGGAGCACCAUUUCGCUGCCAGUGUAGAAAUGAACUAAGAAAAUCUGGGCCAGGCAGGCAUCAAAAGAAAUAGUCUUGCGCUCAACCAGAAAGUCUGUAAUCAUUUUAAGGGUA [A51U A62U] | 1.15 |
| GUUAACGGUCAUAGGCCAUGGAAACUAGGAGCACCAUUUCGCUGCCAGUGAAGAAAUGAACGAAGAGAAUCUGGGCCAGGCAGGCAUCAAAAGAAAUAGUCUUGCGCUCAACCAGAAAGUCUGUAAUCAUUUUAAGGGUA [A62G A67G] | 0.96 |
| GUUAACGGUCAUAGGCCAGGGAAACUAGGAGCACCAUUUCGCUGCCAGUGAAGAAAUGAACAAAGAAAAUCUGGGCCAGGCAGGCAUCAAAAGAAAUAGUCUUGCGCUCAACCAAAAAGUCUGUAAUCAUUUUAAGGGUA [U19G G115A] | 0.38 |
| GUUAACGGUCAUAGGCCAUGGAAACUAGGAGCACCUUUUCGCUGCCAGUGAAGAAAUGAACAAAGAAAAUCUGGGCCAGGCAGGCAUCAAAAGAAAUAGUCUUGCGCUCAACCAGAAAGUCUGUAUUCAUUUUAAGGGUA [A36U A126U] | 1.63 |
| GUUAACGGUCAUAGGCCAUGGAAACUAGGAGCACCAUUUCGCUGCCAGUGAAGAAAUGAACAAAGAGAAUCUGUGCCAGGCAGGCAUCAAAAGAAAUAGUCUUGCGCUCAACCAGAAAGUCUGUAAUCAUUUUAAGGGUA [A67G G74U] | 0.24 |
| GUUAACGGUUAUAGGCCAUGGAAACUAGGAGCACCAUUUCGCUGCCAGUGAAGAAAUGAACAAAGAAAAUCUGGGCCAGGCAGGCAUCAAAAGACAUAGUCUUGCGCUCAACCAGAAAGUCUGUAAUCAUUUUAAGGGUA [C10U A95C] | 0.6 |
| GUUAACGGUCAUAGGCCAUGGAAACUAGGAGCACCAUUUCGCUGCCAGUGAAGAAAUGAACAAGGAAAAUCUGGGCCAGGCAGGCAUCCAAAGAAAUAGUCUUGCGCUCAACCAGAAAGUCUGUAAUCAUUUUAAGGGUA [A64G A89C] | 0.64 |
| GUUAACGGUCAUAGGCCAUGGAAACUAGGAGCACCAUUACGCUGCCAGUGAAGAAAUGAACAAAGAAAAUCUGGGCCAGGCAGGCAUCAAAAGAAAUAGUCUUGCGCUCAACCAGGAAGUCUGUAAUCAUUUUAAGGGUA [U39A A116G] | 1.2 |

— the RNAGym collection of RNA variant scans (doi:10.7554/elife.90254)
